Publication PMC5282582
Values belong to the substance of their own block, whether it stands above or below them.

Tests used:
Test in all cases: SEC-MALS; 100 μl of purified protein injected at 12 mg/ml (high concentration); Superdex 200 10/300 GL, room temperature, 10 mM HEPES pH 7.4, 200 mM NaCl, 5 mM β-ME, 0.4 ml/min
[1] = target: mutant α_(Y126F)β heterodimer of human NAD-dependent isocitrate dehydrogenase (human) (UniProt P50213)
[2] = target: mutant α_(Y126F)γ heterodimer of human NAD-dependent isocitrate dehydrogenase (human) (UniProt P50213)
[3] = target: αβ heterodimer of human NAD-dependent isocitrate dehydrogenase (human) (UniProt P50213)
[4] = target: αγ heterodimer of human NAD-dependent isocitrate dehydrogenase (human) (UniProt P50213)

Sequence of mutant α_(Y126F)β heterodimer of human NAD-dependent isocitrate dehydrogenase (P50213 whole entry, looked up, stated change not applied, one chain of several): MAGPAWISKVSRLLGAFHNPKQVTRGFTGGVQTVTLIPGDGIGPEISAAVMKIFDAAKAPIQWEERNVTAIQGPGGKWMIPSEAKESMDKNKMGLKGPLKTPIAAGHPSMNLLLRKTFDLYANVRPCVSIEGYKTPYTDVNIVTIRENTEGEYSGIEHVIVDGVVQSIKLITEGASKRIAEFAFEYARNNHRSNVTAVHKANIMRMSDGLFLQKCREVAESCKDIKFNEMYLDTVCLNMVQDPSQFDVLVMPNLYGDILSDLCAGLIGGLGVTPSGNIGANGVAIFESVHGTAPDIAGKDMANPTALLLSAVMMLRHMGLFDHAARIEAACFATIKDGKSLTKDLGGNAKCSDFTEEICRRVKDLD
Sequence of αβ heterodimer of human NAD-dependent isocitrate dehydrogenase (P50213 whole entry, looked up, one chain of several): as the sequence (P50213 whole entry, looked up, stated change not applied, one chain of several) above

stoichiometry N [1]: 2
Substance: mutant α_(Y126F)β heterodimer of human NAD-dependent isocitrate dehydrogenase (from UniProt P50213 55-366) (complex)

stoichiometry N [2]: 2
Substance: mutant α_(Y126F)γ heterodimer of human NAD-dependent isocitrate dehydrogenase (from UniProt P50213 55-366; P51553 40-393) (complex)

stoichiometry N [3]: 2
Substance: αβ heterodimer of human NAD-dependent isocitrate dehydrogenase (from UniProt P50213 28-366) (complex)

stoichiometry N [4]: 2
Substance: αγ heterodimer of human NAD-dependent isocitrate dehydrogenase (from UniProt P50213 28-366; P51553 40-393) (complex)
